Results: US20150344570A1 (published 2015)

Experiments:
Experiment in all cases: SPR (Biacore); KD of H240-Kn061/H240-Hl071/L73-k0 divided by KD of the variant
[1] = target: T1, FcγRIIa H extracellular domain with C-terminal His tag (human, UniProt P12318 34-217)
T1 construct: extracellular domain; Soluble receptor, H131 allotype; also called FcgRIIa H; FcgRIIaH; not shown: His tag at the C terminus
T1 sequence (looked up): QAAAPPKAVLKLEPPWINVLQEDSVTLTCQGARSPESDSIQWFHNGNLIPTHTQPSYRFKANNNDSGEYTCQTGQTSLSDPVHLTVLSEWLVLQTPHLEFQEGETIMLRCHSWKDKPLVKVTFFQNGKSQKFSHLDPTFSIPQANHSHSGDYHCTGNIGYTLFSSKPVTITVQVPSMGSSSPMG

[2] = target: T2, FcγRIIIa F extracellular domain with C-terminal His tag (human, UniProt P08637 17-208)
T2 construct: extracellular domain; Soluble receptor, F158 allotype; also called FcgRIIIa F; FcgRIIIaF; not shown: His tag at the C terminus
T2 sequence (P08637 17-208): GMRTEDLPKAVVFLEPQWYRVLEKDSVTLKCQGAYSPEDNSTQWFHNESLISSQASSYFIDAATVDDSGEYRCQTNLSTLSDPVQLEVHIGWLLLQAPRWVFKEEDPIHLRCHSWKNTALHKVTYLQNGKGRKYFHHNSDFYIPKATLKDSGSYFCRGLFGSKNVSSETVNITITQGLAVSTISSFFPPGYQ

[3] = target: T3, FcγRIIIa V extracellular domain with C-terminal His tag (human, UniProt P08637 17-208)
T3 construct: extracellular domain; Soluble receptor, V158 allotype; also called FcgRIIIa V; FcgRIIIaV; not shown: His tag at the C terminus
T3 sequence (P08637 17-208 F176V): as the sequence (P08637 17-208) above, with F160V counted along it

[4] = target: T4, FcγRIIa R extracellular domain with C-terminal His tag (human, UniProt P12318 34-217)
T4 construct: extracellular domain; Soluble receptor, R131 allotype; also called FcgRIIa R; FcgRIIaR; not shown: His tag at the C terminus
T4 sequence (looked up): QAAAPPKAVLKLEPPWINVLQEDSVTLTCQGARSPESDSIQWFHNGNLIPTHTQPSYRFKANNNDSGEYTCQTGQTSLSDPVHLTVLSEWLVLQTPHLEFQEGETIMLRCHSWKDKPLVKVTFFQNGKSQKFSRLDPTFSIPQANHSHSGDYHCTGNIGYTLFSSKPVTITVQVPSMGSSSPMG

[5] = target: T5, FcγRIIb extracellular domain with C-terminal His tag (human, UniProt P31994 43-217)
T5 construct: extracellular domain; also called FcgRIIb; CD32B; not shown: His tag at the C terminus
T5 sequence (looked up): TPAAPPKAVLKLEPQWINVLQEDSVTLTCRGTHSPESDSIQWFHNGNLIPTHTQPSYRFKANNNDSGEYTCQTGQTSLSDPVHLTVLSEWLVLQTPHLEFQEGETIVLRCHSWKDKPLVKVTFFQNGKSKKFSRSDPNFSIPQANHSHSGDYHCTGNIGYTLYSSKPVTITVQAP

B1: H240-Kn061/H240-Hl071/L73-k0 variant with F241L introduced into H chain H240-Hl071 (antibody, human IgG1, kappa)
heavy 1: QDQLVQSGAEVKKPGASVKVSCKASGFNIKDTYIQWVRQAPGQGLEWMGRIDPLRKQTKYREKFEGRVTITADTSTNTAYMELSSLRSEDTAVYYCVRSGREFDYWGQGTLVTVSSASTKGPSVFPLAPSSKSTSGGTAALGCLVKDYFPEPVTVSWNSGALTSGVHTFPAVLQSSGLYSLSSVVTVPSSSLGTQTYICNVNHKPSNTKVDKKVEPKSCDKTHTCPPCPAPEYYWGPSVFLFPPKPKDTLMISRTPEVTCVVVDVSDEDPEVKFNWYVDGVEVHNAKTKPREEQYNATYRVVSVLTVLHQDWLNGKEYKCKVSNKALPAPIEKTISKAKGQPREPQVCTLPPSRDELTKNQVSLWCLVKGFYPSDIAVEWESNGQPENNYKTTPPVLDSDGSFFLYSKLTVDKSRWQQGNVFSCSVMHEALHNHYTQKSLSLSP
heavy 2: QDQLVQSGAEVKKPGASVKVSCKASGFNIKDTYIQWVRQAPGQGLEWMGRIDPLRKQTKYREKFEGRVTITADTSTNTAYMELSSLRSEDTAVYYCVRSGREFDYWGQGTLVTVSSASTKGPSVFPLAPSSKSTSGGTAALGCLVKDYFPEPVTVSWNSGALTSGVHTFPAVLQSSGLYSLSSVVTVPSSSLGTQTYICNVNHKPSNTKVDKKVEPKSCDKTHTCPPCPAPELLGGPSVLLFPPKPKDTLMISRTPEVTCVVVDVSHEDPEVKFNWYVDGVEVHNAKTKPREEQYNSTYRVVSVLTVLHQDWLNGKEYKCKVSNDALPMPIEETISKAKGQPREPQVYTLPPSRCELTKNQVSLSCAVKGFYPSDIAVEWESNGQPENNYKTTPPVLDSDGSFFLVSKLTVDKSRWQQGNVFSCSVMHEALHNHYTQKSLSLSP
light: DIQMTQSPSSLSASVGDRVTITCRASQDIHKYIAWYQQKPGQAPRLLIQYTSTLQPGVPSRFSGSGSGTDYTFTISSLQPEDIATYYCLQYEQLRTFGGGTKVEIKRTVAAPSVFIFPPSDEQLKSGTASVVCLLNNFYPREAKVQWKVDNALQSGNSQESVTEQDSKDSTYSLSSTLTLSKADYEKHKVYACEVTHQGLSSPVTKSFNRGEC
notes: Point variant of the heterodimerized anti-epiregulin IgG1 template; also called H240-Hl071 F241L
[1]
  relative KD: 1.2
[2]
  relative KD: 1.3
[3]
  relative KD: 1.3
[4]
  relative KD: 1.2
[5]
  relative KD: 0.8

B2: H240-Kn061/H240-Hl071/L73-k0 variant with F241M introduced into H chain H240-Hl071 (antibody, human IgG1, kappa)
heavy 1: QDQLVQSGAEVKKPGASVKVSCKASGFNIKDTYIQWVRQAPGQGLEWMGRIDPLRKQTKYREKFEGRVTITADTSTNTAYMELSSLRSEDTAVYYCVRSGREFDYWGQGTLVTVSSASTKGPSVFPLAPSSKSTSGGTAALGCLVKDYFPEPVTVSWNSGALTSGVHTFPAVLQSSGLYSLSSVVTVPSSSLGTQTYICNVNHKPSNTKVDKKVEPKSCDKTHTCPPCPAPEYYWGPSVFLFPPKPKDTLMISRTPEVTCVVVDVSDEDPEVKFNWYVDGVEVHNAKTKPREEQYNATYRVVSVLTVLHQDWLNGKEYKCKVSNKALPAPIEKTISKAKGQPREPQVCTLPPSRDELTKNQVSLWCLVKGFYPSDIAVEWESNGQPENNYKTTPPVLDSDGSFFLYSKLTVDKSRWQQGNVFSCSVMHEALHNHYTQKSLSLSP
heavy 2: QDQLVQSGAEVKKPGASVKVSCKASGFNIKDTYIQWVRQAPGQGLEWMGRIDPLRKQTKYREKFEGRVTITADTSTNTAYMELSSLRSEDTAVYYCVRSGREFDYWGQGTLVTVSSASTKGPSVFPLAPSSKSTSGGTAALGCLVKDYFPEPVTVSWNSGALTSGVHTFPAVLQSSGLYSLSSVVTVPSSSLGTQTYICNVNHKPSNTKVDKKVEPKSCDKTHTCPPCPAPELLGGPSVMLFPPKPKDTLMISRTPEVTCVVVDVSHEDPEVKFNWYVDGVEVHNAKTKPREEQYNSTYRVVSVLTVLHQDWLNGKEYKCKVSNDALPMPIEETISKAKGQPREPQVYTLPPSRCELTKNQVSLSCAVKGFYPSDIAVEWESNGQPENNYKTTPPVLDSDGSFFLVSKLTVDKSRWQQGNVFSCSVMHEALHNHYTQKSLSLSP
light: DIQMTQSPSSLSASVGDRVTITCRASQDIHKYIAWYQQKPGQAPRLLIQYTSTLQPGVPSRFSGSGSGTDYTFTISSLQPEDIATYYCLQYEQLRTFGGGTKVEIKRTVAAPSVFIFPPSDEQLKSGTASVVCLLNNFYPREAKVQWKVDNALQSGNSQESVTEQDSKDSTYSLSSTLTLSKADYEKHKVYACEVTHQGLSSPVTKSFNRGEC
notes: Point variant of the heterodimerized anti-epiregulin IgG1 template; also called H240-Hl071 F241M
[1]
  relative KD: 1.1
[2]
  relative KD: 1.3
[3]
  relative KD: 1.3
[4]
  relative KD: 1.3
[5]
  relative KD: 0.9

B3: H240-Kn061/H240-Hl071/L73-k0 variant with L235F introduced into H chain H240-Hl071 (antibody, human IgG1, kappa)
heavy 1: QDQLVQSGAEVKKPGASVKVSCKASGFNIKDTYIQWVRQAPGQGLEWMGRIDPLRKQTKYREKFEGRVTITADTSTNTAYMELSSLRSEDTAVYYCVRSGREFDYWGQGTLVTVSSASTKGPSVFPLAPSSKSTSGGTAALGCLVKDYFPEPVTVSWNSGALTSGVHTFPAVLQSSGLYSLSSVVTVPSSSLGTQTYICNVNHKPSNTKVDKKVEPKSCDKTHTCPPCPAPEYYWGPSVFLFPPKPKDTLMISRTPEVTCVVVDVSDEDPEVKFNWYVDGVEVHNAKTKPREEQYNATYRVVSVLTVLHQDWLNGKEYKCKVSNKALPAPIEKTISKAKGQPREPQVCTLPPSRDELTKNQVSLWCLVKGFYPSDIAVEWESNGQPENNYKTTPPVLDSDGSFFLYSKLTVDKSRWQQGNVFSCSVMHEALHNHYTQKSLSLSP
heavy 2: QDQLVQSGAEVKKPGASVKVSCKASGFNIKDTYIQWVRQAPGQGLEWMGRIDPLRKQTKYREKFEGRVTITADTSTNTAYMELSSLRSEDTAVYYCVRSGREFDYWGQGTLVTVSSASTKGPSVFPLAPSSKSTSGGTAALGCLVKDYFPEPVTVSWNSGALTSGVHTFPAVLQSSGLYSLSSVVTVPSSSLGTQTYICNVNHKPSNTKVDKKVEPKSCDKTHTCPPCPAPELFGGPSVFLFPPKPKDTLMISRTPEVTCVVVDVSHEDPEVKFNWYVDGVEVHNAKTKPREEQYNSTYRVVSVLTVLHQDWLNGKEYKCKVSNDALPMPIEETISKAKGQPREPQVYTLPPSRCELTKNQVSLSCAVKGFYPSDIAVEWESNGQPENNYKTTPPVLDSDGSFFLVSKLTVDKSRWQQGNVFSCSVMHEALHNHYTQKSLSLSP
light: DIQMTQSPSSLSASVGDRVTITCRASQDIHKYIAWYQQKPGQAPRLLIQYTSTLQPGVPSRFSGSGSGTDYTFTISSLQPEDIATYYCLQYEQLRTFGGGTKVEIKRTVAAPSVFIFPPSDEQLKSGTASVVCLLNNFYPREAKVQWKVDNALQSGNSQESVTEQDSKDSTYSLSSTLTLSKADYEKHKVYACEVTHQGLSSPVTKSFNRGEC
notes: Point variant of the heterodimerized anti-epiregulin IgG1 template; also called H240-Hl071 L235F
[1]
  relative KD: 1.1
[2]
  relative KD: 1.9
[3]
  relative KD: 1.6
[4]
  relative KD: 1.2
[5]
  relative KD: 1

B4: H240-Kn061/H240-Hl071/L73-k0 variant with V240A introduced into H chain H240-Hl071 (antibody, human IgG1, kappa)
heavy 1: QDQLVQSGAEVKKPGASVKVSCKASGFNIKDTYIQWVRQAPGQGLEWMGRIDPLRKQTKYREKFEGRVTITADTSTNTAYMELSSLRSEDTAVYYCVRSGREFDYWGQGTLVTVSSASTKGPSVFPLAPSSKSTSGGTAALGCLVKDYFPEPVTVSWNSGALTSGVHTFPAVLQSSGLYSLSSVVTVPSSSLGTQTYICNVNHKPSNTKVDKKVEPKSCDKTHTCPPCPAPEYYWGPSVFLFPPKPKDTLMISRTPEVTCVVVDVSDEDPEVKFNWYVDGVEVHNAKTKPREEQYNATYRVVSVLTVLHQDWLNGKEYKCKVSNKALPAPIEKTISKAKGQPREPQVCTLPPSRDELTKNQVSLWCLVKGFYPSDIAVEWESNGQPENNYKTTPPVLDSDGSFFLYSKLTVDKSRWQQGNVFSCSVMHEALHNHYTQKSLSLSP
heavy 2: QDQLVQSGAEVKKPGASVKVSCKASGFNIKDTYIQWVRQAPGQGLEWMGRIDPLRKQTKYREKFEGRVTITADTSTNTAYMELSSLRSEDTAVYYCVRSGREFDYWGQGTLVTVSSASTKGPSVFPLAPSSKSTSGGTAALGCLVKDYFPEPVTVSWNSGALTSGVHTFPAVLQSSGLYSLSSVVTVPSSSLGTQTYICNVNHKPSNTKVDKKVEPKSCDKTHTCPPCPAPELLGGPSAFLFPPKPKDTLMISRTPEVTCVVVDVSHEDPEVKFNWYVDGVEVHNAKTKPREEQYNSTYRVVSVLTVLHQDWLNGKEYKCKVSNDALPMPIEETISKAKGQPREPQVYTLPPSRCELTKNQVSLSCAVKGFYPSDIAVEWESNGQPENNYKTTPPVLDSDGSFFLVSKLTVDKSRWQQGNVFSCSVMHEALHNHYTQKSLSLSP
light: DIQMTQSPSSLSASVGDRVTITCRASQDIHKYIAWYQQKPGQAPRLLIQYTSTLQPGVPSRFSGSGSGTDYTFTISSLQPEDIATYYCLQYEQLRTFGGGTKVEIKRTVAAPSVFIFPPSDEQLKSGTASVVCLLNNFYPREAKVQWKVDNALQSGNSQESVTEQDSKDSTYSLSSTLTLSKADYEKHKVYACEVTHQGLSSPVTKSFNRGEC
notes: Point variant of the heterodimerized anti-epiregulin IgG1 template; also called H240-Hl071 V240A
[1]
  relative KD: 1.2
[2]
  relative KD: 1.3
[3]
  relative KD: 1.7
[4]
  relative KD: 1
[5]
  relative KD: 1
